Data on 97 variants can be found in the supplement of paper PMC10567573.

The chains are these.
B1: VAMP4 (parent)
chain: IMALVAAILLLVIIILIVMKYRT
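Note: lentivirally expressed fusions sorted by FACS into six bins by GFP to DsRed ratio, PSI derived from sequencing read proportions per bin multiplied by bin number.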

Variants of B1 are the subject of the data set. Put plainly: protein stability index of a GFP-peptide fusion (GPS, HEK-293T) (PSI 1-6); higher = more stable. The settings on record: c terminus: native.
For the variant ICALVAAILLLVIIILIVMKYRT [M2C], the protein stability index stood at 3.25.

In the case of IGALVAAILLLVIIILIVMKYRT [M2G], the protein stability index was determined as 2.98.

IMALVAAILLLVIIILINMKYRT [V18N]: the protein stability index is 2.33.

Take IMALVAAILLLVIIILIRMKYRT [V18R]: the protein stability index is 1.27.

For IMALVAAILLLVIIILIPMKYRT [V18P], the protein stability index was 2.72.

As to IMALVAAILLLVIIILIWMKYRT [V18W], the protein stability index is 3.21.

For the variant IMALVAAILLLVIIILISMKYRT [V18S], the protein stability index is 2.56.

Turning to IMALVAAILLLVIIILIDMKYRT [V18D], the protein stability index amounted to 2.85.

For the variant IMALVAAILLLVIIILIAMKYRT [V18A], the protein stability index was 2.6.

For the variant IMALVAAILLLVIIILIYMKYRT [V18Y], the protein stability index was found to be 2.97.

Consider IMALVAAILLLVIIILIQMKYRT [V18Q], for which the protein stability index was 2.04.

In the case of IMALVAAILLLVIIILIIMKYRT [V18I], the protein stability index came out at 3.54.

Regarding IMALVAAILLLNIIILIVMKYRT [V12N], the protein stability index worked out at 2.48.

Take IMALVAAILLLWIIILIVMKYRT [V12W]: the protein stability index was found to be 2.65.

On to IMALVAAILLLRIIILIVMKYRT [V12R], for which the protein stability index was found to be 2.49.

In the case of IMALVAAILLLEIIILIVMKYRT [V12E], the protein stability index was determined as 1.6.

Regarding IMALVAAILLLGIIILIVMKYRT [V12G], the protein stability index turned out to be 3.32.

Regarding IMALVAAILLLFIIILIVMKYRT [V12F], the protein stability index worked out at 3.47.

Regarding IMALVAAILLLTIIILIVMKYRT [V12T], the protein stability index was found to be 3.16.

As to IMALVAAILLLKIIILIVMKYRT [V12K], the protein stability index worked out at 2.06.

For IMALVAAILLLPIIILIVMKYRT [V12P], the protein stability index was 2.62.

For the variant IMALVAAILLLSIIILIVMKYRT [V12S], the protein stability index came out at 3.17.

Consider IMALVAAILLLHIIILIVMKYRT [V12H], for which the protein stability index came out at 2.3.

As for IMALVAAILLLCIIILIVMKYRT [V12C], the protein stability index was 2.97.

IMALVAAILLLVIISLIVMKYRT [I15S]: the protein stability index stood at 2.65.

As for IMALVAAILLLVIIGLIVMKYRT [I15G], the protein stability index stood at 2.98.

For the variant IMALVAAILLLVIITLIVMKYRT [I15T], the protein stability index came out at 3.08.

Take IMALVAAILLLVIIVLIVMKYRT [I15V]: the protein stability index turned out to be 3.25.

With IMALVAAILLLVIINLIVMKYRT [I15N], the protein stability index amounted to 1.95.

Turning to IMALVAAILLLVIIQLIVMKYRT [I15Q], the protein stability index came to 1.89.

In the case of IMALVAAILLLVIILLIVMKYRT [I15L], the protein stability index was 3.26.

On to IMALVAAILLLVIIYLIVMKYRT [I15Y], for which the protein stability index is 2.26.

Consider IMALVAAILLLVIIWLIVMKYRT [I15W], for which the protein stability index was found to be 1.84.

Consider VMALVAAILLLVIIILIVMKYRT [I1V], for which the protein stability index was found to be 3.38.

On to QMALVAAILLLVIIILIVMKYRT [I1Q], for which the protein stability index came to 3.45.

Turning to EMALVAAILLLVIIILIVMKYRT [I1E], the protein stability index is 2.77.

In the case of FMALVAAILLLVIIILIVMKYRT [I1F], the protein stability index was 3.39.

Turning to RMALVAAILLLVIIILIVMKYRT [I1R], the protein stability index worked out at 3.06.

In the case of TMALVAAILLLVIIILIVMKYRT [I1T], the protein stability index was 3.53.

Take SMALVAAILLLVIIILIVMKYRT [I1S]: the protein stability index was 3.02.

With AMALVAAILLLVIIILIVMKYRT [I1A], the protein stability index amounted to 3.25.

Consider IMALVQAILLLVIIILIVMKYRT [A6Q], for which the protein stability index worked out at 2.37.

Turning to IMALVKAILLLVIIILIVMKYRT [A6K], the protein stability index amounted to 2.68.

Regarding IMALVIAILLLVIIILIVMKYRT [A6I], the protein stability index was 3.61.

On to IMALVFAILLLVIIILIVMKYRT [A6F], for which the protein stability index amounted to 3.75.

As for IMALVEAILLLVIIILIVMKYRT [A6E], the protein stability index is 2.3.

Take IMALVRAILLLVIIILIVMKYRT [A6R]: the protein stability index stood at 2.47.

Turning to IMALVWAILLLVIIILIVMKYRT [A6W], the protein stability index came to 2.02.

For the variant IMALVAAILLLVIIILIVMKYRM [T23M], the protein stability index was 3.39.

On to IMALVAAILLLVIIILIVMKYRP [T23P], for which the protein stability index turned out to be 3.28.

Take IMALVAAILLLVIIILIVMKYRH [T23H]: the protein stability index came to 3.48.

As for IMALVAAILLLVIIILIVMKYRL [T23L], the protein stability index was 3.06.

Regarding IMALVAAILLLVIIILIVMKYRF [T23F], the protein stability index amounted to 3.3.

IMALVAAILLLVIIILIVMKYRV [T23V]: the protein stability index worked out at 3.3.

Take IMALVAAILLLVIIILIVMKYRD [T23D]: the protein stability index amounted to 3.27.

Turning to IMALVAAILLLVIIILIVMKYRR [T23R], the protein stability index is 2.99.

With IMALVAAILLLVIIILIVMKYRY [T23Y], the protein stability index came to 3.37.

For IMALVAAILELVIIILIVMKYRT [L10E], the protein stability index stood at 1.79.

Consider IMALVAAILQLVIIILIVMKYRT [L10Q], for which the protein stability index amounted to 2.67.

IMALVAAILCLVIIILIVMKYRT [L10C]: the protein stability index came to 2.84.

IMALVAAILMLVIIILIVMKYRT [L10M]: the protein stability index stood at 3.35.

For IMALVAAILRLVIIILIVMKYRT [L10R], the protein stability index is 3.16.

With IMALVAAILSLVIIILIVMKYRT [L10S], the protein stability index is 2.86.

Regarding IMALVAAILVLVIIILIVMKYRT [L10V], the protein stability index came out at 3.53.

In the case of IMALVAAILLLVIIICIVMKYRT [L16C], the protein stability index came to 3.65.

With IMALVAAILLLVIIIHIVMKYRT [L16H], the protein stability index is 3.18.

For IMALVAAILLLVIIINIVMKYRT [L16N], the protein stability index came to 2.73.

Regarding IMALVAAILLLVIIIGIVMKYRT [L16G], the protein stability index was determined as 3.18.

For IMALVAAILLLVIIIYIVMKYRT [L16Y], the protein stability index amounted to 3.25.

Take IMALVAAILLLVIIIMIVMKYRT [L16M]: the protein stability index was 2.39.

Take IMALVAAILLLVIIIWIVMKYRT [L16W]: the protein stability index stood at 3.28.

For the variant IMALVAAILLLVIIIIIVMKYRT [L16I], the protein stability index was 3.44.

For the variant IMALVAAILLLVIIIPIVMKYRT [L16P], the protein stability index came to 3.2.

As for IMALVAAILLLVIIIQIVMKYRT [L16Q], the protein stability index was 3.13.

Regarding IMALVAAILLLVIIIAIVMKYRT [L16A], the protein stability index was 3.57.

Consider IMALVAAILLLVIAILIVMKYRT [I14A], for which the protein stability index stood at 3.33.

For the variant IMALVAAILLLVIGILIVMKYRT [I14G], the protein stability index was determined as 3.44.

In the case of IMALVAAILLLVIEILIVMKYRT [I14E], the protein stability index is 2.02.

In the case of IMALVAAILLLVICILIVMKYRT [I14C], the protein stability index came out at 3.36.

With IMALVAAILLLVIQILIVMKYRT [I14Q], the protein stability index stood at 2.23.

IMALVAAIPLLVIIILIVMKYRT [L9P]: the protein stability index was determined as 2.43.

For the variant IMALVAAIVLLVIIILIVMKYRT [L9V], the protein stability index turned out to be 3.3.

For the variant IMALVAAISLLVIIILIVMKYRT [L9S], the protein stability index was 3.05.

IMALVAAIALLVIIILIVMKYRT [L9A]: the protein stability index came to 2.92.

Consider IMALVAAIFLLVIIILIVMKYRT [L9F], for which the protein stability index is 3.56.

Regarding IMALVAAIRLLVIIILIVMKYRT [L9R], the protein stability index is 1.95.

With IMALVAAICLLVIIILIVMKYRT [L9C], the protein stability index is 3.33.

As to IMALVAAIMLLVIIILIVMKYRT [L9M], the protein stability index was 3.74.

IMALVAAILLLVIIILIVSKYRT [M19S]: the protein stability index was determined as 3.33.

IMALVAAILLLVIIILIVPKYRT [M19P]: the protein stability index was determined as 2.66.

As to IMALVAAILLLVIIILIVGKYRT [M19G], the protein stability index worked out at 2.99.

As to IMALVAAILLLVIIILIVLKYRT [M19L], the protein stability index stood at 3.68.

Turning to IMALVAAILLLVIIILIVQKYRT [M19Q], the protein stability index came to 2.51.

Regarding IMALVAAILLLVIIILIVHKYRT [M19H], the protein stability index worked out at 3.08.

For the variant IMALVAAILLLVIIILIVFKYRT [M19F], the protein stability index came to 3.48.

As to IMALVAAILLLVIIILIVDKYRT [M19D], the protein stability index is 3.19.

In the case of IMALVAAILLLVIIILIVKKYRT [M19K], the protein stability index is 2.77.
